# Laboratory results from patent publication US20260176254A1, “INHIBITORS OF PROSTATE SPECIFIC MEMBRANE ANTIGEN AND USE THEREOF” (SHANGHAI SINOTAU BIOTECH. CO., LTD, priority 2023, published 2026).
# How the values were obtained:
# [1] = Tissue biodistribution in 22Rv1 tumor mouse model; parameters: species or system mice; conditions: male, nude, in vivo, iv, total radioactivity
# Description: (§1) LnCAP and 22RV1 CDX xenograft tumor models were generated by inoculating 5×10^6 cells/site subcutaneously in male SCID or nude mice (Vital River), respectively. Animals were housed according to IACUC guidance and had accessed to food and water ad libitium. Animals were used for biodistribution study when the tumor dimensions reached around 0.2-0.3 cm^3. […] At each tome point, animals were sacrificed and tissues were collected, weighted, and subjected to radioactivity measurements using gamma counter. Radioactivity in the tissues was presented in % ID/g (percent of injected dose per gram).
# [2] = tested on: 22RV1 CDX xenograft tumor; experiment: Tissue biodistribution in 22Rv1 tumor mouse model; parameters: species or system mice; conditions: male, nude, in vivo, iv
# Description: as §1
# [3] = Tissue biodistribution: Salivary Gland
smiles,measurement,setting,value
"O=C(O)CN1CCN(CC(=O)O)CCN(CC(=O)NC23CCC(Nc4c(N[C@@H](Cc5c6ccccc6cc6ccccc56)C(=O)NCCCC[C@H](NC(=O)N[C@@H](CNC(=O)C(=O)O)C(=O)O)C(=O)O)c(=O)c4=O)(CC2)CC3)CCN(CC(=O)O)CC1 [[^177Lu]Lu-E8, metal not drawn]",tissue uptake dose at 2 h,[1],8.22 ± 0.38 %ID
same,tissue uptake dose at 6 h,[1],5.13 ± 0.24 %ID
same,tissue uptake dose at 24 h,[1],2.13 ± 0.07 %ID
same,tissue uptake dose at 72 h,[1],0.81 ± 0.01 %ID
same,tissue uptake dose at 168 h,[1],1.34 ± 0.01 %ID
same,tissue to tissue ratio,[1]; T/NT ratio Tumor/Blood,570
same,tissue to tissue ratio,[1]; T/NT ratio Tumor/Salivary Gland,201
same,tissue uptake at 2 h,[1]; Tissue biodistribution: Blood,0.4 ± 0.14 %ID/g
same,tissue uptake at 6 h,[1]; Tissue biodistribution: Blood,0.08 ± 0.04 %ID/g
same,tissue uptake at 24 h,[1]; Tissue biodistribution: Blood,0.03 %ID/g
same,tissue uptake at 72 h,[1]; Tissue biodistribution: Blood,0.02 %ID/g
same,tissue uptake at 168 h,[1]; Tissue biodistribution: Blood,0.02 ± 0.01 %ID/g
same,tissue uptake at 2 h,[1]; Tissue biodistribution: Bone,0.47 ± 0.09 %ID/g
same,tissue uptake at 6 h,[1]; Tissue biodistribution: Bone,0.26 ± 0.03 %ID/g
same,tissue uptake at 24 h,[1]; Tissue biodistribution: Bone,0.26 ± 0.04 %ID/g
same,tissue uptake at 72 h,[1]; Tissue biodistribution: Bone,0.34 ± 0.01 %ID/g
same,tissue uptake at 168 h,[1]; Tissue biodistribution: Bone,0.43 ± 0.1 %ID/g
same,tissue uptake at 2 h,[1]; Tissue biodistribution: Heart,0.57 ± 0.28 %ID/g
same,tissue uptake at 6 h,[1]; Tissue biodistribution: Heart,0.1 ± 0.01 %ID/g
same,tissue uptake at 24 h,[1]; Tissue biodistribution: Heart,0.07 %ID/g
same,tissue uptake at 72 h,[1]; Tissue biodistribution: Heart,0.07 ± 0.01 %ID/g
same,tissue uptake at 168 h,[1]; Tissue biodistribution: Heart,0.08 ± 0.01 %ID/g
same,tissue uptake at 2 h,[1]; Tissue biodistribution: Kidney,136 ± 16.7 %ID/g
same,tissue uptake at 6 h,[1]; Tissue biodistribution: Kidney,56.5 ± 18.9 %ID/g
same,tissue uptake at 24 h,[1]; Tissue biodistribution: Kidney,5.86 ± 1.87 %ID/g
same,tissue uptake at 72 h,[1]; Tissue biodistribution: Kidney,0.99 ± 0.04 %ID/g
same,tissue uptake at 168 h,[1]; Tissue biodistribution: Kidney,0.26 ± 0.01 %ID/g
same,tissue uptake at 2 h,[1]; Tissue biodistribution: Liver,0.34 ± 0.07 %ID/g
same,tissue uptake at 6 h,[1]; Tissue biodistribution: Liver,0.19 ± 0.03 %ID/g
same,tissue uptake at 24 h,[1]; Tissue biodistribution: Liver,0.18 ± 0.05 %ID/g
same,tissue uptake at 72 h,[1]; Tissue biodistribution: Liver,0.22 ± 0.01 %ID/g
same,tissue uptake at 168 h,[1]; Tissue biodistribution: Liver,0.23 ± 0.08 %ID/g
same,tissue uptake at 2 h,[1]; Tissue biodistribution: Lung,1.14 ± 0.31 %ID/g
same,tissue uptake at 6 h,[1]; Tissue biodistribution: Lung,0.32 ± 0.11 %ID/g
same,tissue uptake at 24 h,[1]; Tissue biodistribution: Lung,0.12 ± 0.02 %ID/g
same,tissue uptake at 72 h,[1]; Tissue biodistribution: Lung,0.09 ± 0.01 %ID/g
same,tissue uptake at 168 h,[1]; Tissue biodistribution: Lung,0.07 ± 0.02 %ID/g
same,tissue uptake at 2 h,[1]; Tissue biodistribution: Muscle,0.23 ± 0.03 %ID/g
same,tissue uptake at 6 h,[1]; Tissue biodistribution: Muscle,0.08 ± 0.01 %ID/g
same,tissue uptake at 24 h,[1]; Tissue biodistribution: Muscle,0.03 %ID/g
same,tissue uptake at 72 h,[1]; Tissue biodistribution: Muscle,0.02 %ID/g
same,tissue uptake at 168 h,[1]; Tissue biodistribution: Muscle,0.03 ± 0.01 %ID/g
same,tissue uptake at 2 h,[1]; [3],0.57 ± 0.19 %ID/g
same,tissue uptake at 6 h,[1]; [3],0.2 ± 0.07 %ID/g
same,tissue uptake at 24 h,[1]; [3],0.08 %ID/g
same,tissue uptake at 72 h,[1]; [3],0.09 ± 0.01 %ID/g
same,tissue uptake at 168 h,[1]; [3],0.06 ± 0.01 %ID/g
same,tissue uptake at 2 h,[1]; Tissue biodistribution: Spleen,6.44 ± 3.19 %ID/g
same,tissue uptake at 6 h,[1]; Tissue biodistribution: Spleen,0.88 ± 0.26 %ID/g
same,tissue uptake at 24 h,[1]; Tissue biodistribution: Spleen,0.28 ± 0.05 %ID/g
same,tissue uptake at 72 h,[1]; Tissue biodistribution: Spleen,0.35 ± 0.01 %ID/g
same,tissue uptake at 168 h,[1]; Tissue biodistribution: Spleen,0.39 ± 0.11 %ID/g
same,tissue uptake at 2 h,[1]; Tissue biodistribution: Tumor,19.7 ± 9.31 %ID/g
same,tissue uptake at 6 h,[1]; Tissue biodistribution: Tumor,18.8 ± 1.68 %ID/g
same,tissue uptake at 24 h,[1]; Tissue biodistribution: Tumor,22.7 ± 7.83 %ID/g
same,tissue uptake at 72 h,[1]; Tissue biodistribution: Tumor,24.3 ± 1.92 %ID/g
same,tissue uptake at 168 h,[1]; Tissue biodistribution: Tumor,11.9 ± 4.35 %ID/g
same,tissue to tissue ratio at 2 h,[1]; Tumor/Blood,62.7 ± 54.4
same,tissue to tissue ratio at 6 h,[1]; Tumor/Blood,277 ± 98.9
same,tissue to tissue ratio at 24 h,[1]; Tumor/Blood,754 ± 166
same,tissue to tissue ratio at 72 h,[1]; Tumor/Blood,1120 ± 40
same,tissue to tissue ratio at 168 h,[1]; Tumor/Blood,555 ± 353
same,tissue to tissue ratio at 2 h,[1]; Tumor/Bone,41.5 ± 19.5
same,tissue to tissue ratio at 6 h,[1]; Tumor/Bone,73.6 ± 6.68
same,tissue to tissue ratio at 24 h,[1]; Tumor/Bone,87.2 ± 16.1
same,tissue to tissue ratio at 72 h,[1]; Tumor/Bone,72.1 ± 4.85
same,tissue to tissue ratio at 168 h,[1]; Tumor/Bone,27.7 ± 7.2
same,tissue to tissue ratio at 2 h,[1]; Tumor/Kidney,0.15 ± 0.09
same,tissue to tissue ratio at 6 h,[1]; Tumor/Kidney,0.35 ± 0.11
same,tissue to tissue ratio at 24 h,[1]; Tumor/Kidney,3.97 ± 0.93
same,tissue to tissue ratio at 72 h,[1]; Tumor/Kidney,24.5 ± 2.46
same,tissue to tissue ratio at 168 h,[1]; Tumor/Kidney,45.6 ± 16.3
same,T/NT ratio Tumor/Blood,[2],497.77
same,T/NT ratio Tumor/Salivary Gland,[2],183.55
